System: disulfide cyclized peptide Mpa-Tyr-II-Pro-Mea

thrombin
thrombin activity in screen at compound concentration of around 10 µM (fluorogenic substrate): reduced the thrombin activity 52%

From US20240279845
